Laboratory results from PMC6962051, “Auxiliary-assisted chemical ubiquitylation of NEMO and linear extension by HOIP” (Communications chemistry, 2019).

Columns and labels:
[1] = molecular target: the molecule itself; assay: circular dichroism thermal melting at different concentrations; PBS pH 7.4; ellipticity at 222 nm, 2-80 °C, 2 °C/min; melting temperature rises with the concentration of NEMO_(CoZi) (20.2, 24.9, 28.5 °C); monomer to coiled-coil dimer
linear di-Ubiquitin = molecular target: T1, linear di-Ubiquitin (UniProt P0CG47 1-76; P0CG47 1-76); assay: BLI; biotinylated NEMO_(CoZi) or NEMO_(CoZi)-Ub immobilised on streptavidin biosensors (~2 ug/mL); di-Ub at 2-225 uM; 25 °C; 100 s association, 100 s dissociation; 10 mM HEPES pH 7.4, 150 mM NaCl, 3 mM EDTA, 0.005% Tween-20; equilibrium analysis of response against di-Ub concentration; details: both partners purified
T1 construct: ubiquitin (1-76), distal unit of the linear (M1-linked) dimer; ubiquitin (1-76), proximal unit, its Met1 joined by a peptide bond to Gly76 of the first unit; also called linear diubiquitin chains

B1: synthetic biotinylated mouse NEMO CoZi domain (NEMO_(CoZi)), 83-mer (domain or fragment)
chain: EDLRQQLQQAEEALVAKQELIDKLKEEAEQHKIVMETVPVLKAQADIYKADFQAERHAREKLVEKKEYLQEQLEQLQREFNKL
modifications: biotin on the N-terminus; C-terminal amide
notes: CoZi (coiled-coil and leucine zipper) domain of mouse NEMO, 83-mer; The unmodified peptide is the same 83-mer after Alloc removal, without the auxiliary; also called unmodified NEMO_(CoZi); source: synthetic peptide (solid-phase synthesis in a single piece, HPLC purified); not shown: biotin, N-terminal, kept
[1]
  binding result: binds
Linear di-Ubiquitin
  Kd: 25 µM
